Assay results as given in patent CN101605906A (MEDAREX INC, dated 2009).

Molecular target: T1, 人类CD70 (表达于细胞表面) (human, UniProt P32970 1-193)
T1 sequence: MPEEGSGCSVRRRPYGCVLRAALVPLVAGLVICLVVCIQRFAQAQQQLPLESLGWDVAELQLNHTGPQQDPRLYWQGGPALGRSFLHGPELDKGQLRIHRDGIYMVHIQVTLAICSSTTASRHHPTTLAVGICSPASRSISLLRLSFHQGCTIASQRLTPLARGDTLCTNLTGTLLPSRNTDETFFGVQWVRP
Test: cell-based or functional assay

3 H-胸腺嘧啶核苷掺入 (Hum-Zap内化测定, 786-O细胞), EC50: 0.9 nM
B1: 抗-CD70人类单克隆抗体2H5 (antibody, V domains shown)
VH: QVQLVESGGGVVQPGRSLRLSCAASGFTFSSYIMHWVRQAPGKGLEWVAVISYDGRNKYYADSVKGRFTISRDNSKNTLYLQMNSLRAEDTAVYYCARDTDGYDFDYWGQGTLVTVSS
VL: EIVLTQSPATLSLSPGERATLSCRASQSVSSYLAWYQQKPGQAPRLLIYDASNRATGIPARFSGSGSGTDFTLTISSLEPEDFAVYYCQQRTNWPLTFGGGTKVEIK
